For this test, the target named is T1, Ep-CAM (UniProt P16422 24-265, limits assumed).
T1 construct: Amine coupled to a CM5 chip in the Biacore assays
T1 sequence (looked up): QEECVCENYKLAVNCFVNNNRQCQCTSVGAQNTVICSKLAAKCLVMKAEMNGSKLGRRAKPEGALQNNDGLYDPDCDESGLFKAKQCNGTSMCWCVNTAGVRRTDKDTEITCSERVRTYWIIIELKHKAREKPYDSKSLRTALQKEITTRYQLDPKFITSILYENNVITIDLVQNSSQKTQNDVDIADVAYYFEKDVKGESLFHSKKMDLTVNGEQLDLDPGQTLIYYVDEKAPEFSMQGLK
Nature of the test: Biacore, Fab periplasmic extract.

The results in this text go back to US20110118131A1 (published 2011).

B1: ING-1 light chain K27E (Fab, V domains shown)
VH: QIQLVQSGPELKKPGETVKISCKASGYTFTKYGMNWVKQAPGKGLKWMGWINTYTEEPTYGDDFKGRFAFSLETSASTANLQINNLKSEDTATYFCARFGSAVDYWGQGTSVTVSS
VL: DIVMTQAAFSNPVTLGTSGSISCRSSESLLHSNGITYLYWYLQKPGQSPQLLIYQMSNLASGVPDRFSSSGSGTDFTLRISRVEAEDVGVYYCAQNLELPRTFGGGTKLEMKR
notes: Fab, periplasmic extract
On to B1, for which the binding result is reported as “no binding”.

B2: ING-1 light chain L29Q (Fab, V domains shown)
VH: QIQLVQSGPELKKPGETVKISCKASGYTFTKYGMNWVKQAPGKGLKWMGWINTYTEEPTYGDDFKGRFAFSLETSASTANLQINNLKSEDTATYFCARFGSAVDYWGQGTSVTVSS
VL: DIVMTQAAFSNPVTLGTSGSISCRSSKSQLHSNGITYLYWYLQKPGQSPQLLIYQMSNLASGVPDRFSSSGSGTDFTLRISRVEAEDVGVYYCAQNLELPRTFGGGTKLEMKR
notes: Fab, periplasmic extract
As for B2, the binding result is “no binding”.

B3: ING-1 light chain L30W (Fab, V domains shown)
VH: QIQLVQSGPELKKPGETVKISCKASGYTFTKYGMNWVKQAPGKGLKWMGWINTYTEEPTYGDDFKGRFAFSLETSASTANLQINNLKSEDTATYFCARFGSAVDYWGQGTSVTVSS
VL: DIVMTQAAFSNPVTLGTSGSISCRSSKSLWHSNGITYLYWYLQKPGQSPQLLIYQMSNLASGVPDRFSSSGSGTDFTLRISRVEAEDVGVYYCAQNLELPRTFGGGTKLEMKR
notes: Fab, periplasmic extract
Turning to B3, the binding result was “no binding”.

B4: ING-1 light chain K27W (Fab, V domains shown)
VH: QIQLVQSGPELKKPGETVKISCKASGYTFTKYGMNWVKQAPGKGLKWMGWINTYTEEPTYGDDFKGRFAFSLETSASTANLQINNLKSEDTATYFCARFGSAVDYWGQGTSVTVSS
VL: DIVMTQAAFSNPVTLGTSGSISCRSSWSLLHSNGITYLYWYLQKPGQSPQLLIYQMSNLASGVPDRFSSSGSGTDFTLRISRVEAEDVGVYYCAQNLELPRTFGGGTKLEMKR
notes: Fab, periplasmic extract
As to B4, the binding result is “no binding”.

B5: ING-1 light chain L29D (Fab, V domains shown)
VH: QIQLVQSGPELKKPGETVKISCKASGYTFTKYGMNWVKQAPGKGLKWMGWINTYTEEPTYGDDFKGRFAFSLETSASTANLQINNLKSEDTATYFCARFGSAVDYWGQGTSVTVSS
VL: DIVMTQAAFSNPVTLGTSGSISCRSSKSDLHSNGITYLYWYLQKPGQSPQLLIYQMSNLASGVPDRFSSSGSGTDFTLRISRVEAEDVGVYYCAQNLELPRTFGGGTKLEMKR
notes: Fab, periplasmic extract
B5: the binding result is given as “no binding”.

B6: ING-1 light chain L30K (Fab, V domains shown)
VH: QIQLVQSGPELKKPGETVKISCKASGYTFTKYGMNWVKQAPGKGLKWMGWINTYTEEPTYGDDFKGRFAFSLETSASTANLQINNLKSEDTATYFCARFGSAVDYWGQGTSVTVSS
VL: DIVMTQAAFSNPVTLGTSGSISCRSSKSLKHSNGITYLYWYLQKPGQSPQLLIYQMSNLASGVPDRFSSSGSGTDFTLRISRVEAEDVGVYYCAQNLELPRTFGGGTKLEMKR
notes: Fab, periplasmic extract
As for B6, the binding result is given as “no binding”.

B7: ING-1 light chain L99H (Fab, V domains shown)
VH: QIQLVQSGPELKKPGETVKISCKASGYTFTKYGMNWVKQAPGKGLKWMGWINTYTEEPTYGDDFKGRFAFSLETSASTANLQINNLKSEDTATYFCARFGSAVDYWGQGTSVTVSS
VL: DIVMTQAAFSNPVTLGTSGSISCRSSKSLLHSNGITYLYWYLQKPGQSPQLLIYQMSNLASGVPDRFSSSGSGTDFTLRISRVEAEDVGVYYCAQNLEHPRTFGGGTKLEMKR
notes: Fab, periplasmic extract
Consider B7, for which the “fold difference in affinity vs parental ING-1” value (from here on “fold difference in affinity”) amounted to 0.05 fold.

B8: ING-1 light chain L29R (Fab, V domains shown)
VH: QIQLVQSGPELKKPGETVKISCKASGYTFTKYGMNWVKQAPGKGLKWMGWINTYTEEPTYGDDFKGRFAFSLETSASTANLQINNLKSEDTATYFCARFGSAVDYWGQGTSVTVSS
VL: DIVMTQAAFSNPVTLGTSGSISCRSSKSRLHSNGITYLYWYLQKPGQSPQLLIYQMSNLASGVPDRFSSSGSGTDFTLRISRVEAEDVGVYYCAQNLELPRTFGGGTKLEMKR
notes: Fab, periplasmic extract
For the molecule B8, the binding result was “no binding”.

B9: ING-1 light chain L30R (Fab, V domains shown)
VH: QIQLVQSGPELKKPGETVKISCKASGYTFTKYGMNWVKQAPGKGLKWMGWINTYTEEPTYGDDFKGRFAFSLETSASTANLQINNLKSEDTATYFCARFGSAVDYWGQGTSVTVSS
VL: DIVMTQAAFSNPVTLGTSGSISCRSSKSLRHSNGITYLYWYLQKPGQSPQLLIYQMSNLASGVPDRFSSSGSGTDFTLRISRVEAEDVGVYYCAQNLELPRTFGGGTKLEMKR
notes: Fab, periplasmic extract
On to B9, for which the binding result was “no binding”.

B10: ING-1 light chain L29W (Fab, V domains shown)
VH: QIQLVQSGPELKKPGETVKISCKASGYTFTKYGMNWVKQAPGKGLKWMGWINTYTEEPTYGDDFKGRFAFSLETSASTANLQINNLKSEDTATYFCARFGSAVDYWGQGTSVTVSS
VL: DIVMTQAAFSNPVTLGTSGSISCRSSKSWLHSNGITYLYWYLQKPGQSPQLLIYQMSNLASGVPDRFSSSGSGTDFTLRISRVEAEDVGVYYCAQNLELPRTFGGGTKLEMKR
notes: Fab, periplasmic extract
With B10, the binding result is “no binding”.

B11: ING-1 light chain L29Y (Fab, V domains shown)
VH: QIQLVQSGPELKKPGETVKISCKASGYTFTKYGMNWVKQAPGKGLKWMGWINTYTEEPTYGDDFKGRFAFSLETSASTANLQINNLKSEDTATYFCARFGSAVDYWGQGTSVTVSS
VL: DIVMTQAAFSNPVTLGTSGSISCRSSKSYLHSNGITYLYWYLQKPGQSPQLLIYQMSNLASGVPDRFSSSGSGTDFTLRISRVEAEDVGVYYCAQNLELPRTFGGGTKLEMKR
notes: Fab, periplasmic extract
For the molecule B11, the binding result is given as “no binding”.

B12: ING-1 light chain L99D (Fab, V domains shown)
VH: QIQLVQSGPELKKPGETVKISCKASGYTFTKYGMNWVKQAPGKGLKWMGWINTYTEEPTYGDDFKGRFAFSLETSASTANLQINNLKSEDTATYFCARFGSAVDYWGQGTSVTVSS
VL: DIVMTQAAFSNPVTLGTSGSISCRSSKSLLHSNGITYLYWYLQKPGQSPQLLIYQMSNLASGVPDRFSSSGSGTDFTLRISRVEAEDVGVYYCAQNLEDPRTFGGGTKLEMKR
notes: Fab, periplasmic extract
In the case of B12, the “fold difference in affinity” value came to 0.02 fold.

B13: ING-1 light chain L99E (Fab, V domains shown)
VH: QIQLVQSGPELKKPGETVKISCKASGYTFTKYGMNWVKQAPGKGLKWMGWINTYTEEPTYGDDFKGRFAFSLETSASTANLQINNLKSEDTATYFCARFGSAVDYWGQGTSVTVSS
VL: DIVMTQAAFSNPVTLGTSGSISCRSSKSLLHSNGITYLYWYLQKPGQSPQLLIYQMSNLASGVPDRFSSSGSGTDFTLRISRVEAEDVGVYYCAQNLEEPRTFGGGTKLEMKR
notes: Fab, periplasmic extract
As to B13, the “fold difference in affinity” value turned out to be 0.01 fold.

B14: ING-1 light chain L29E (Fab, V domains shown)
VH: QIQLVQSGPELKKPGETVKISCKASGYTFTKYGMNWVKQAPGKGLKWMGWINTYTEEPTYGDDFKGRFAFSLETSASTANLQINNLKSEDTATYFCARFGSAVDYWGQGTSVTVSS
VL: DIVMTQAAFSNPVTLGTSGSISCRSSKSELHSNGITYLYWYLQKPGQSPQLLIYQMSNLASGVPDRFSSSGSGTDFTLRISRVEAEDVGVYYCAQNLELPRTFGGGTKLEMKR
notes: Fab, periplasmic extract
As to B14, the binding result was “no binding”.

B15: ING-1 light chain L30E (Fab, V domains shown)
VH: QIQLVQSGPELKKPGETVKISCKASGYTFTKYGMNWVKQAPGKGLKWMGWINTYTEEPTYGDDFKGRFAFSLETSASTANLQINNLKSEDTATYFCARFGSAVDYWGQGTSVTVSS
VL: DIVMTQAAFSNPVTLGTSGSISCRSSKSLEHSNGITYLYWYLQKPGQSPQLLIYQMSNLASGVPDRFSSSGSGTDFTLRISRVEAEDVGVYYCAQNLELPRTFGGGTKLEMKR
notes: Fab, periplasmic extract
Consider B15, for which the binding result was “no binding”.

B16: ING-1 light chain K27S (Fab, V domains shown)
VH: QIQLVQSGPELKKPGETVKISCKASGYTFTKYGMNWVKQAPGKGLKWMGWINTYTEEPTYGDDFKGRFAFSLETSASTANLQINNLKSEDTATYFCARFGSAVDYWGQGTSVTVSS
VL: DIVMTQAAFSNPVTLGTSGSISCRSSSSLLHSNGITYLYWYLQKPGQSPQLLIYQMSNLASGVPDRFSSSGSGTDFTLRISRVEAEDVGVYYCAQNLELPRTFGGGTKLEMKR
notes: Fab, periplasmic extract
Turning to B16, the binding result is “no binding”.

B17: ING-1 light chain K27N (Fab, V domains shown)
VH: QIQLVQSGPELKKPGETVKISCKASGYTFTKYGMNWVKQAPGKGLKWMGWINTYTEEPTYGDDFKGRFAFSLETSASTANLQINNLKSEDTATYFCARFGSAVDYWGQGTSVTVSS
VL: DIVMTQAAFSNPVTLGTSGSISCRSSNSLLHSNGITYLYWYLQKPGQSPQLLIYQMSNLASGVPDRFSSSGSGTDFTLRISRVEAEDVGVYYCAQNLELPRTFGGGTKLEMKR
notes: Fab, periplasmic extract
In the case of B17, the binding result is “no binding”.

B18: ING-1 light chain L97R (Fab, V domains shown)
VH: QIQLVQSGPELKKPGETVKISCKASGYTFTKYGMNWVKQAPGKGLKWMGWINTYTEEPTYGDDFKGRFAFSLETSASTANLQINNLKSEDTATYFCARFGSAVDYWGQGTSVTVSS
VL: DIVMTQAAFSNPVTLGTSGSISCRSSKSLLHSNGITYLYWYLQKPGQSPQLLIYQMSNLASGVPDRFSSSGSGTDFTLRISRVEAEDVGVYYCAQNRELPRTFGGGTKLEMKR
notes: Fab, periplasmic extract
On to B18, for which the binding result is reported as “no binding”.

B19: ING-1 light chain L29F (Fab, V domains shown)
VH: QIQLVQSGPELKKPGETVKISCKASGYTFTKYGMNWVKQAPGKGLKWMGWINTYTEEPTYGDDFKGRFAFSLETSASTANLQINNLKSEDTATYFCARFGSAVDYWGQGTSVTVSS
VL: DIVMTQAAFSNPVTLGTSGSISCRSSKSFLHSNGITYLYWYLQKPGQSPQLLIYQMSNLASGVPDRFSSSGSGTDFTLRISRVEAEDVGVYYCAQNLELPRTFGGGTKLEMKR
notes: Fab, periplasmic extract
Regarding B19, the binding result is on record as “no binding”.

B20: ING-1 light chain L97D (Fab, V domains shown)
VH: QIQLVQSGPELKKPGETVKISCKASGYTFTKYGMNWVKQAPGKGLKWMGWINTYTEEPTYGDDFKGRFAFSLETSASTANLQINNLKSEDTATYFCARFGSAVDYWGQGTSVTVSS
VL: DIVMTQAAFSNPVTLGTSGSISCRSSKSLLHSNGITYLYWYLQKPGQSPQLLIYQMSNLASGVPDRFSSSGSGTDFTLRISRVEAEDVGVYYCAQNDELPRTFGGGTKLEMKR
notes: Fab, periplasmic extract
Consider B20, for which the binding result is “no binding”.
